The record followed here is paper PMC2964165 (The EMBO Journal, 2010).

For this assay, the target named is recombinant Impβ (human, UniProt Q14974 1-876). Put plainly: pull-down.
Chain of recombinant Impβ (Q14974 whole entry): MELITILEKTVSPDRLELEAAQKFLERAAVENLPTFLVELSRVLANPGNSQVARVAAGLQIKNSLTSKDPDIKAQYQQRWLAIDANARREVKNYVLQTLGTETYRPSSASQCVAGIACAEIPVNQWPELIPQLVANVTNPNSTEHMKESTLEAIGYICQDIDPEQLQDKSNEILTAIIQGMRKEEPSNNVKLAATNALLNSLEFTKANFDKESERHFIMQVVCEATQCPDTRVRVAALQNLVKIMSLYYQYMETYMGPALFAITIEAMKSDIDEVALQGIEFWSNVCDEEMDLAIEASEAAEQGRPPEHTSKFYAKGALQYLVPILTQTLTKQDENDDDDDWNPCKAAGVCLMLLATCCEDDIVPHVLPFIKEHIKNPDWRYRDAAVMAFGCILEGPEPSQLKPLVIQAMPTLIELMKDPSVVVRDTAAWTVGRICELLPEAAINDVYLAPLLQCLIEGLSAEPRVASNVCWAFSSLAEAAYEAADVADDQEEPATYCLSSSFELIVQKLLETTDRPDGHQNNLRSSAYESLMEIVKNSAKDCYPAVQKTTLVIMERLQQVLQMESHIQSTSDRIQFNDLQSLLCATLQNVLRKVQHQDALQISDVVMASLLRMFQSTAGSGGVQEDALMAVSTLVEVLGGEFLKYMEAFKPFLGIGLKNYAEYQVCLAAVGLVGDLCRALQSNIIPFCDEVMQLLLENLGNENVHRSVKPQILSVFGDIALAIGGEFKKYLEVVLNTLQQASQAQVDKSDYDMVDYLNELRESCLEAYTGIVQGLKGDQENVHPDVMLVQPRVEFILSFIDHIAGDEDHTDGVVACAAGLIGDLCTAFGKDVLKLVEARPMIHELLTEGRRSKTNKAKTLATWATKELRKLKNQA

B1: IBB peptide (peptide)
peptide: not shown
With B1, the binding result is recorded as “binds”.
